The labels stand for the following.
B1: human ULBP2-Fc (Fc fusion, UniProt Q9BZM5 26-217, looked up)
chain: GRADPHSLCYDITVIPKFRPGPRWCAVQGQVDEKTFLHYDCGNKTVTPVSPLGKKLNVTTAWKAQNPVLREVVDILTEQLRDIQLENYTPKEPLTLQARMSCEQKAEGHSSGSWQFSFDGQIFLLFDSEKRMWTTVHPGARKMKEKWENDKVVAMSFHYFSMGDCIGWLEDFLMGMDSTLEPSAGAPLAMSS
notes: Bought from R&D Systems; also called recombinant human ULBP2-Fc; not shown: Fc part (detected with anti-human Fc)
B2: KYK-2.0 Fab (Fab, V domains shown)
VH: QVQLVESGGGLVKPGGSLRLSCAASGFTFSSYGMHWVRQAPGKGLEWVAFIRYDGSNKYYADSVKGRFTISRDNSKNTKYLQMNSLRAEDTAVYYCAKDRGLGDGTYFDYWGQGTTVTVSS
VL: QSALTQPASVSGSPGQSITISCSGSSSNIGNNAVNWYQQLPGKAPKLLIYYDDLLPSGVSDRFSGSKSGTSAFLAISGLQSEDEADYYCAAWDDSLNGPVFGGGTKLTVL
notes: Human Fab (lambda) with human constant domains and a C-terminal (His)6 tag, expressed in E. coli from pC3C-His and purified by IMAC
B3: KYK-2.0 IgG1 (antibody, V domains shown)
VH: B2 VH
VL: B2 VL
notes: It was biotinylated for flow cytometry on PBMC; also called KYK-2.0 IgG1λ; PIGG-KYK-2.0
B4: human NKG2D, cell surface (receptor, UniProt P26718 1-216, looked up)
chain: MGWIRGRRSRHSWEMSEFHNYNLDLKKSDFSTRWQKQRCPVVKSKCRENASPFFFCCFIAVAMGIRFIIMVTIWSAVFLNSLFNQEVQIPLTESYCGPCPKNWICYKNNCYQFFDESKNWYESQASCMSQNASLLKVYSKEDQDLLKLVKSYHWMGLVHIPTNGSWQWEDGSILSPNLLTIIEMQKGDCALYASSFKGYIENCSTPNTYICMQRTV
notes: whole, on cells; also called cell surface human NKG2D
B5: KYK-1.0 Fab (Fab, V domains shown)
VH: EVQLVESGGGVVQPGGSLRLSCAASGFTFSSYGMHWVRQAPGKGLEWVAFIRYDGSNKYYADSVKGRFTISRDNSKNTKYLQMNSLRAEDTAVYYCAKDRFGYYLDYWGQGTLVTVSS
VL: QPVLTQPSSVSVAPGETARIPCGGDDIETKSVHWYQQKPGQAPVLVIYDDDDRPSGIPERFFGSNSGNTATLSISRVEAGDEADYYCQVWDDNNDEWVFGGGTQLTVL
notes: Human Fab with human constant domains (lambda light chain) and a C-terminal (His)6 tag, expressed in E. coli from pC3C-His and purified by IMAC
B6: KYK-1.0 IgG1 (antibody, V domains shown)
VH: B5 VH
VL: B5 VL
notes: Fully human IgG1 lambda; also called KYK-1.0 IgG1λ; PIGG-KYK-1.0

The target in assay [1] is B4. Description: whole-cell ELISA on HEK 293F/human NKG2D, 100 ng ligand-Fc, detected with biotinylated goat anti-human Fc and streptavidin-HRP, absorbance at 405 nm [panel ULBP2]. In general terms: An ELISA detects its analyte on a solid surface through an enzyme-linked reagent.
Assay [2] addresses T1, human Fc-NKG2D (human, UniProt P26718 78-216).
T1 construct: range 78-216; Bought from R&D Systems: a recombinant fusion protein of human Fc and the extracellular domain (amino acids 78-216) of human NKG2D; also called human NKG2D (immobilized); not shown: human Fc
T1 sequence (looked up): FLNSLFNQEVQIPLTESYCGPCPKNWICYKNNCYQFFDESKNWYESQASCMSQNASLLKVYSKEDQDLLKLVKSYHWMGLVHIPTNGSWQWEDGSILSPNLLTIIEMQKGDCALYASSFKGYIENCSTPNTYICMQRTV

For assay [3], the target named is T1, human Fc-NKG2D. The assay is described as follows: SPR (BIAcore 2000), human Fc-NKG2D immobilized on chip. On the technique in general: Surface plasmon resonance follows binding to a sensor surface in real time, without labels.
The next assay has as its target T2, BSA (bovine, UniProt P02769).
T2 construct: coated on the ELISA plate; also called bovine serum albumin
The assay is described as follows: ELISA, protein coated at 100 ng/well, Fab detected with goat anti-human Fab-HRP, absorbance at 405 nm.

The next assay addresses T3, human CD22-Fc (human, UniProt P20273 20-687).
T3 construct: Bought from R&D Systems; not shown: Fc part
T3 sequence (looked up): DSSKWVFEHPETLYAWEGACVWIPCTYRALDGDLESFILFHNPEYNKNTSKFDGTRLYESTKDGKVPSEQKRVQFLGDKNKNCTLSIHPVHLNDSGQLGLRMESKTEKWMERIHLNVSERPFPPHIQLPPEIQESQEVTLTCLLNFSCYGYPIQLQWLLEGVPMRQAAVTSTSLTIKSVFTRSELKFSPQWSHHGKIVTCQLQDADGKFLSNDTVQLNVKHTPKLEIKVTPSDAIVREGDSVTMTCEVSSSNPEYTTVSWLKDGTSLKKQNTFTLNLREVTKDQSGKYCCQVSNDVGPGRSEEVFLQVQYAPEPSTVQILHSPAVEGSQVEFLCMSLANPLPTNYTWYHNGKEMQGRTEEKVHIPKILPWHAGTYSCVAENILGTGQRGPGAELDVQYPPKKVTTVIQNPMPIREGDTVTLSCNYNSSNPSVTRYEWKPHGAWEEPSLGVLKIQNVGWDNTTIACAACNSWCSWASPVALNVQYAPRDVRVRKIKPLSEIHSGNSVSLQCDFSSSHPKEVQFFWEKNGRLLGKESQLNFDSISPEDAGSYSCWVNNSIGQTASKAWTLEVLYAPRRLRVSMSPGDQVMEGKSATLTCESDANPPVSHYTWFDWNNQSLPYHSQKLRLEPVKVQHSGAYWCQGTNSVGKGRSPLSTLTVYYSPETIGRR
The assay is described as above.

The target of the next assay is T4, human CD23 (human, UniProt P06734 150-321, limits assumed).
T4 construct: Bought
T4 sequence (looked up): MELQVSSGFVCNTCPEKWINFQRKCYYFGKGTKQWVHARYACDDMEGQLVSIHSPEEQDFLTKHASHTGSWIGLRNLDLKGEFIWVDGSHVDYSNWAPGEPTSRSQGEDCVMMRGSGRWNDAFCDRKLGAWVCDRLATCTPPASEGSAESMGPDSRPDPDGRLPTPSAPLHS
Described as above.

Another assay has as its target T5, mouse Fc-NKG2D (mouse, UniProt O54709 94-232, limits assumed).
T5 construct: Bought from R&D Systems; also called mouse NKG2D; not shown: Fc part
T5 sequence (looked up): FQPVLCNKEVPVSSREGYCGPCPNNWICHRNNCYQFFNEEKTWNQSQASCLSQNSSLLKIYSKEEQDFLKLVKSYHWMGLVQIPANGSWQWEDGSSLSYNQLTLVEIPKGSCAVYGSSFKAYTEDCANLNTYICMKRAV
The assay is described as above.

The target in the assay “human ULBP2-Fc” is B1. Described as above.
The target of assay [4] is T1, human Fc-NKG2D. The assay is described as follows: SPR (BIAcore 2000), human Fc-NKG2D immobilized on chip; koff/kon.
Assay [5] deals with T1, human Fc-NKG2D. The source holds these as a separate data set.
Assay [6] deals with T1, human Fc-NKG2D. The assay is described as follows: SPR (BIAcore 2000), human Fc-NKG2D immobilized on chip. The source holds these as a separate data set.
In assay [7] the target is T1, human Fc-NKG2D. Description: SPR (BIAcore 2000), human Fc-NKG2D immobilized on chip; bivalent IgG.
The target of assay [8] is T1, human Fc-NKG2D. The assay is described as follows: SPR (BIAcore 2000), human Fc-NKG2D immobilized on chip; bivalent binding (virtual affinity, avidity).
The next assay concerns the target T6, human MICA-Fc (human, UniProt Q29983 24-307, limits assumed).
T6 construct: Bought from R&D Systems; also called recombinant human MICA-Fc; not shown: Fc part (detected with anti-human Fc)
T6 sequence (looked up): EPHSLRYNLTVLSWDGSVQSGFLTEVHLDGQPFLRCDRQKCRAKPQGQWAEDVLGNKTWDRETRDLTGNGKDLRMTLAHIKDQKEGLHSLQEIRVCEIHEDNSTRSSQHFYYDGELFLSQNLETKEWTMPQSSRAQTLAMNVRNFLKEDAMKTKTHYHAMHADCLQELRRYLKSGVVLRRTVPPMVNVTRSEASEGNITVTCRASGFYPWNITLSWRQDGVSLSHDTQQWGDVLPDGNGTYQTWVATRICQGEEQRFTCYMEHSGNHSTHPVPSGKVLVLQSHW
The assay is described as follows: whole-cell ELISA on HEK 293F/human NKG2D, 100 ng ligand-Fc, detected with biotinylated goat anti-human Fc and streptavidin-HRP, absorbance at 405 nm [panel MICA].

A further assay deals with T7, human MICB-Fc (human, UniProt Q29980 23-298, limits assumed).
T7 construct: Bought from R&D Systems; also called recombinant human MICB-Fc; not shown: Fc part (detected with anti-human Fc)
T7 sequence (looked up): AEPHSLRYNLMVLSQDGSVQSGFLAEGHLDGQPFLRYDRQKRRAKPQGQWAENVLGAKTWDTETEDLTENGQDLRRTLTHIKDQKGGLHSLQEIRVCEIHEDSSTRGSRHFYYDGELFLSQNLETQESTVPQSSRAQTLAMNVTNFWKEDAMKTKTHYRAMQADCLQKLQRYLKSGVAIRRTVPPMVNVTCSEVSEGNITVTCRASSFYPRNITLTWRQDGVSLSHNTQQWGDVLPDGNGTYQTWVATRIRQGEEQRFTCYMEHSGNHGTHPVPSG
The assay is described as follows: whole-cell ELISA on HEK 293F/human NKG2D, 100 ng ligand-Fc, detected with biotinylated goat anti-human Fc and streptavidin-HRP, absorbance at 405 nm [panel MICB].

Like-named read-outs stand apart in the source and are kept apart here.

T2 sequence (P02769 25-607 limits assumed): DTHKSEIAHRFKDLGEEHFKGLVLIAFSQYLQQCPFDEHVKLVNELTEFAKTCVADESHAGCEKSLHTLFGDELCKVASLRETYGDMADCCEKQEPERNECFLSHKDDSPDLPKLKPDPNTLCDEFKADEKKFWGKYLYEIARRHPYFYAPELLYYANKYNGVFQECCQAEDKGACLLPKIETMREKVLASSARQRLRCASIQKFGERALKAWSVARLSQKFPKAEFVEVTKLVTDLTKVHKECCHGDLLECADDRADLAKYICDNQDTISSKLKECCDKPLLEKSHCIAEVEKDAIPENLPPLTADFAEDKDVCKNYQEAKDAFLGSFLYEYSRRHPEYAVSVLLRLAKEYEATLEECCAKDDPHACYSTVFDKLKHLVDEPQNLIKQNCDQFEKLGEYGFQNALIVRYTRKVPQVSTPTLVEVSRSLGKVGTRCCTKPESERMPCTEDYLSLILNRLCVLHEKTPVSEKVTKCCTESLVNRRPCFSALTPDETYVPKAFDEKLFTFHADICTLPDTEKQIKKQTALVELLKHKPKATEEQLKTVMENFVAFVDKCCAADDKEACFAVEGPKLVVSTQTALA

For B1, the binding result in [1] is “binds”.

With B2, the Kd in the assay with human Fc-NKG2D [2] is 1.9 to 3 nM; with human Fc-NKG2D [4] it was 5.8 nM; with human Fc-NKG2D [5] it was 1.9 to 3 nM. Also, the koff (commonly the rate constant with which the complex falls apart) with human Fc-NKG2D [2] was determined as 0.0012 s⁻¹; in the assay with human Fc-NKG2D [5], 0.0018 s⁻¹; in the assay with human Fc-NKG2D [6] it was 0.0043 s⁻¹. In addition, the association rate constant (kon) (as a rule, a measure of how fast the partners come together) came to 450000 M⁻¹ s⁻¹ in the assay with human Fc-NKG2D [2], 890000 M⁻¹ s⁻¹ in the assay with human Fc-NKG2D [5] and 740000 M⁻¹ s⁻¹ in the assay with human Fc-NKG2D [6]. The “fold improvement in affinity (Kd) over KYK-1.0 Fab” value with human Fc-NKG2D [3] was around 4.5 fold. For the same molecule, the “fold slower dissociation compared to KYK-1.0 Fab” value with human Fc-NKG2D [3] was around 8.5 fold. The binding result in the assay with BSA, with human CD22-Fc, with human CD23, with mouse Fc-NKG2D and with human ULBP2-Fc was “no binding (tested: not shown)” in each case.

In the assay with human Fc-NKG2D [7], B3 had an off-rate constant (koff) of 0.00012 s⁻¹ and a kon of 320000 M⁻¹ s⁻¹. The Kd in the assay with human Fc-NKG2D [8] is 0.38 nM.

With B4, the binding result in the assay with human MICA-Fc and in the assay with human MICB-Fc was “binds” throughout.

Turning to B5, the binding result with BSA, in the assay with human CD22-Fc, in the assay with human CD23, with mouse Fc-NKG2D and with human ULBP2-Fc was “no binding (tested: not shown)” in each case. The same molecule gave a Kd in the assay with human Fc-NKG2D [4] of 27 nM. This molecule also came in with a koff with human Fc-NKG2D [6] of 0.037 s⁻¹. The on-rate constant (kon) in the assay with human Fc-NKG2D [6] was found to be 1.4e+06 M⁻¹ s⁻¹.

In the case of B6, in the assay with human Fc-NKG2D [7], the koff was determined as 0.00056 s⁻¹ and the on-rate (kon) was 310000 M⁻¹ s⁻¹. The molecule also had a Kd in the assay with human Fc-NKG2D [8] of 1.8 nM.
